PMC6272748, “Cysteine Specific Targeting of the Functionally Distinct Peroxiredoxin and Glutaredoxin Proteins by the Investigational Disulfide BNP7787” (Molecules, 2015)

Biological target: the molecule itself
Test: crystal structure; co-crystal of BNP7787-modified Prx 4 from 1.6 M ammonium sulfate, 0.1 M MES pH 6.5, 10% dioxane; 2.3 Å, space group C2; five molecules in the asymmetric unit, decamer generated by crystal symmetry

B1: human peroxiredoxin 4 (Prx 4) carrying a BNP7787-derived mesna adduct (enzyme, UniProt Q13162 79-271, looked up)
chain: AKISKPAPYWEGTAVIDGEFKELKLTDYRGKYLVFFFYPLDFTFVCPTEIIAFGDRLEEFRSINTEVVACSVDSQFTHLAWINTPRRQGGLGPIRIPLLSDLTHQISKDYGVYLEDSGHTLRGLFIIDDKGILRQITLNDLPVGRSVDETLRLVQAFQYTDKHGEVCPAGWKPGSETIIPDPAGKLKYFDKLN
modifications: BNP7787-derived mesna mixed disulfide on Cys 124 (in all molecules of the decamer); whole protein mass spectrometry consistent with two mesna adducts, the second proposed on Cys 245 (not visible in the electron density)
notes: Peroxiredoxin 4, human, wild type; No density beyond residue 242 in the crystal; TEV cleavage is described only for Grx 1; also called Prx IV; BNP7787-modified Prx 4; source: E. coli BL21(RIPL), purified (Ni2+ IMAC, size exclusion), reduced with DTT, then incubated with 40 mM BNP7787; copies: 10
stoichiometry N: 10
